Test results: the nanobody polyreactivity screen of Harvey et al. (2022)

Assay: yeast display, Sf9 membrane polyspecificity reagent, FACS + sequencing; frameworks hold sequencing errors
In short: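 Sorting gates, low and high (top ~1%), were placed on anti-HA fluorescence to track expression and on streptavidin fluorescence to track reagent binding. A clone's polyreactivity label is taken from the gate it came out of. The reagent was 10% biotinylated, detergent-solubilized Sf9 membrane, applied for 1 hour at 4 °C to galactose-induced yeast display cells.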

Sequence | polyreactivity (PSR sort gate)
QVQLVESGGGLVQARGSLRLICAASGRTFSYNTMGWYRQAPGKERDLVASITRSGGSTYYSDSVKGRFTISRDNAKNTVYLQMNSLKPEDTAVYYCAADSYPGSTYYDSLDYWGQGTQVTVSS | low polyreactivity
QVQLVESGGGLVQARGSLRLRFAASGSTFPYYAMGWDRQAPGKERELVATITKRGGRKYYADSVKGRFTISRDNAKNTVYFLMTSLKPEDTAVYYCAARFRFAVTYDYWGQGTQVTVSS | high polyreactivity
QVQLVESGGGLVQARGSLRLSCAASGFTFAFYAMGWYRQAPGKEMELVAAITGSGGSTYDADSVKGRFTISRDNAKNTVYLQLNSLKPEDTAVYYCFTRGGYYLYYSYYYWGQGTQVTVSS | high polyreactivity
QVQLVESGGGLVQARGSLRLSCAASGFTFRSYTMGWYRQAHGKERELVAAITSRGTSTYYADSVKGRFTISLDNAKNTVYLQMNSLKPEDTAVYYCAAPIYNGYASWQVYYWGQGTQVTVSS | high polyreactivity
QVQLVESGGGLVQARGSLRLSCAASGIIRSNAMGWYRQAPGKERELVAVISSSGGRTYYADSVKGRFTISRDNAKNTVYLQMTSLKPEDTAVFYCPAQVQVGAFSYYYWGQGTQVTVSS | high polyreactivity
QVQLVESGGGLVQARGSLRLSCAASGLTVGYNAMGWYRQARVKEWELVGAISSNGGRTYYADSVKGRFTISRDNAKNTVYLQMNSLKPEDTAVYYCNARYTGSSLYYWGQGTQVTVSS | high polyreactivity
QVQLVESGGGLVQARGSLRLSCAASGNTFVTNAIGWYRQAPGKVRELVAAINSSGGSTYYADSVKGRFTISRDNAKNTVYLQMNSLKPEDTAVYYCAADPLGITSGYGYWGQGTQVNVSS | low polyreactivity
QVQLVESGGGLVQARGSLRLSCAASGRIFLINGMGWYRQAPGKERELVAVITQSGGTYYADSVKGRFTISRDNAKNTVYLQMNSLKPEDTAVYYFAASSYGASRGYWGQGTQVTVSS | high polyreactivity
QVQLVESGGGLVQARGSLRLSCAASGRIFVRKAMGWYRQAPGKERELVASISTSSGSTYYADSVKGRFTISRDNAKNTVYLQMNSLTPEVTAVYYCNAGYHFVHWPHVKHKKFDYWGQGTQVTVSS | low polyreactivity
QVQLVESGGGLVQARGSLRLSCAASGRTFDLYAMGWYRQSPGKERELVAAITKGGGSTYYADSVKGRFTISRDNAKNTVYLQMNSLKPEDTAVYYCAARKYKRIYRISSGIGYYWGQGTQVTVSS | high polyreactivity
QVQLVESGGGLVQARGSLRLSCAASGRTFFENAMGWYRQAPGKERELVATITTTGGSTYYADSVKGRFTISRDNAKNTVYLQMNSLKPEYTAVYYCATRGWYLGSRGYRNRYGYWGQGTQVTVSS | high polyreactivity
QVQLVESGGGLVQARGSLRLSCAASGRTFGNYAMGWYRQSPGKERELVASINTGGSTSYADSVKGRFTISRDNAKNTVYFLMNSLKPEDTAVYYCARSFFWYRLHVYWGQGTQVTVSS | low polyreactivity
QVQLVESGGGLVQARGSLRLSCAASGRTFRSYAMGWYRQAPGKERELVAVITRSTGNTYYADSVKGRFTISRDNAMNTVYLQMNSLKPEDTAVYYCARQYRRYDYWGQGTQVTVSS | high polyreactivity
QVQLVESGGGLVQARGSLRLSCAASGSIFDPNAMGWSRQAPGKVRELGAAMTSGGGSTYYADSVKGRFTISRDNAKNTVYLQMNSLKPEDTAVYYCNNVFVLPYNFVAWFDYWGQGTQVTVSW | low polyreactivity
QVQLVESGGGLVQARGSLRLSCAASGSIFGKNVMGWYRQAPGKERELVAAISRSGGRTYYADSVKGRFTISRDNAKNTVYLQMNSLKPEDTAVYYCAADGQPIGQQTYDYWGQGTQVTVSS | high polyreactivity
QVQLVESGGGLVQARGSLRLSCAASGSIFNRNAMGWYRQAPGKERELVAAISRRGGSTYYADSVKGRFTISRDNEKNSVYLQMNSLKPEDTAVYYCAAATRKTEYDYWGQGTEVTVSS | low polyreactivity
QVQLVESGGGLVQARGSLRLSCAASGSIFSIYAMGWYRPAPGTERELVASITRSSGRTYYADSVKGRFTISRDNAKNTVYLQMISLKPEDTAVYYCAKDYIPLALDADDYWGQGTQVTVSS | low polyreactivity
QVQLVESGGGLVQARGSLRLSCAASGSISDYYAMGWYRQAPGKERELVAAISWDGGSTYYADSVKGRFTISRDNAKNTVYLQLNSLKPEDTAVYYCNAGSGASVGNNILYDYWGQGTQVTVSS | low polyreactivity
QVQLVESGGGLVQARGSLRLSCAASGSTFRYYAMGLYRQAPGKERELVAAITSSGTSTYYADSVKGRFTISRDNAKNTVYLQMISLKPEDTAVYYCAAPPVYKWVSSRYDYWGQVTQVTVSS | low polyreactivity
QVQLVESGGGLVQARGSLRLSCAASGSTFYYYAMGWYRQAPGKEREFVAAISWTGGTTYYADSVKGRFTISRDIAKNTVYLQMNSLKPEDTAVYYCNADPWWDSDWGYDYWGQGTQVTVSS | low polyreactivity
QVQLVESGGGLVQARGSLRLSCAASGSTLTRNALGWYRQAPGKERELVAAITQRGGSTYYADSVKGRFTISRDNGKNTVYFQMNSLKPEDTAVYYCAKVPSVKYRSIWVLPEYGWGQGTQVTVSS | high polyreactivity
QVQLVESGGGLVQARGSLRLSCAASGSTSTYYAMGWYRQAPGKERELVAAITSSVGSTHYADSVKGRFTISRDNAKNTVYLQMNSLKPEDTAVYYCAATFGYGRYGYWGQGTQVTVSS | low polyreactivity

Sequence | polyreactivity (PSR sort gate)
QVQLVESGGGLVQARGSLRLSCAASGYIINQYTKGWYRQAPGKERELVADISSGGSTKYADSVKGRFTISRDNGKNTVSLQMNSLKPEDTAVYYCNGEYDSGSPTAYDWEYDYWVQGTQVTVSS | high polyreactivity
QVQLVESGGGLVQARGSLRLSCAASVGILNWYALGWYRLAPVKEWELVAAISWSGGSTYYADSVKGRFTISRDNAKNTVYLHFNSLKPEVTAVYYCAAHSRGRFSRTYGYWGDGTQVTVSS | high polyreactivity
QVQLVESGGGLVQARGSLRLSCAATGSTFDKYAMGRYRQAPGKERELVAAISSSGTRTYYADSVKGRFTISRDNAKITVYLQMNSLKPEDTAVYYCDTGGSNKYYYWGQGTQVTVSS | high polyreactivity
QVQLVESGGGLVQARGSLRLSSAATGLIILAYAMGWYRQAPGKERELVAAISTSGSTYYADSVKGRFTISRDNAKNTVYLQMNSLKPEDTAVYYCAAYYRWSVTYYDWGQGTQGTVSS | high polyreactivity
QVQLVESGGGLVQARGSLRLTCAASGRNFYLNAMGWYRQAPGKERELVAAITWSGGRTYYADSVKGRFTISRDNAKNTVYLQMYSLKPEDTAFYYCAAVPRPGPNTVLTPYVYWGQGTQVTVSS | high polyreactivity
QVQLVESGGGLVQARGSLRVSCAASGSTFGRYAMGWYRQAPGKDRELVAAITGSGGSTYYADSVKGRFTISRDNAKNTVYLHMNSLKPEDTAVYYCAAPVDYRRYEYEYWGQGTQVTVSS | low polyreactivity
QVQLVESGGGLVQAVGSHRLSCAASGFIFTSYAMGCYRQAPGKERELVAAITRSGGRTYYADSVKGRFTISRDNAKNTVYLQMNSLKPEDTAVYYCAAVTFYQSPARGYWGQGTQVTVSS | high polyreactivity
QVQLVESGGGLVQAVGSLRLSCAASASIFRNNAMGWYRQAPGKERELVASISSSGDNTNYADSVKGRFTISRDNAKNTVYLQMNSLKPEDTAVYYCAAANKGPDQADYHYDQWGQGTQVTVSS | low polyreactivity
QVQLVESGGGLVQAVGSLRLSCAASGGIFTLYVMGWYRQAPGKERELVAAISRTGGSTYYADSVKGRFTISRDNAKNTVYLQMNSLKPEDTAVYYCAALYRGGTRYGGYDYWGQGTQVTVSS | low polyreactivity
QVQLVESGGGLVQAVGSLRLSCAASGLIFERYAMGSYIQAPGKEREFVAAISKRGGSTYYADSVKGRFTISRDNAKNTVYLQMNSLKPEDTAVYDCAVQPNYYGMGYCGQGTQVTVSS | high polyreactivity
QVQLVESGGGLVQAVGSLRLSCAASGRTFDFYAMGWYREAPGKEREFVAAISSRGGSTYYADTVKGRFTISRDNAKNTVYLQMNSLKPEDTAVYYCAKDLGYRGRYNYWGQGTQVTVSS | low polyreactivity
QVQLVESGGGLVQAVGSLRLSCAASGSIFPVYAMGWYRQAPGKERELVADITYTTGSTYYADSVKRRFTISRDNAKNTFYLQMNSLKPEDTAVYYCAKDFGFQSDSWGQGTQVTVSS | low polyreactivity
QVQLVESGGGLVQAVGSLRLSCAASGSTFAYYAMGWYRQAPGKEREFVAAISTRGGSTYYADSVKGRFTISRDNAKNTVYLQLISLKQEDTAFYYCAAGYFIYSWRIRFDHWGQGTQVTVSS | high polyreactivity
QVQLVESGGGLVQAVGSLRLSCADSGRLLSYYDMGWYRQAPGKVRELVARLGGTYYADSVKGRFTISRYIAKNTVYLQMNSLKPEDTAVYYCAAEYGYDFLRSYHEYGYWGQGTQVTVSS | low polyreactivity
QVQLVESGGGLVQAVGSLRLSCAPSGSTFPYYAMGWYRQAPGKERELVASIRKRGGGTYYADSVKGRFTISRDNAKNTVYLQMNSLKPEDTAVYYCAVRVYQFRYTGYDYWGQGTQVTVSS | high polyreactivity
QVQLVESGGGLVQAVGSLSLSCAASGIIFTWYDMGWYRPAPGKERELVAAISYIGGGSTYYADSVKGRFTISRDNAKNTVYLQMNSLKPEDTAVYYCATDFYYAKYGYWGQGTQVTVSS | low polyreactivity
QVQLVESGGGLVQEGGSLCLSCAASGINFYYYTMGWYRQATGKERELVDAISGDDTHYADSVKGRFTISGDNAKKTVYLLMNSLKADHTAVYYCAAGYIYWDTVQSVYEYGYCGQGTQVTVSS | low polyreactivity
QVQLVESGGGLVQEGGSLLLSCAASGRTFNQYAMGWYRQAPGKERELVAGITISGGSTYYADSVKGRFTISRENAKNTVYLQMNSLIPEDTAVYYCIAVFDYYRQSKWTMDYWGQGTQVTVSS | low polyreactivity
QVQLVESGGGLVQEGGSLPLSCAASGSIIWVYAMGWYRQPPGKERELFAAITSGVSTYYADSVKGRFTISRDNAKITVYFQFNRLKPEDSAVYDCAVVGGFRWIRMEYWGQGTQVSVSS | low polyreactivity
QVQLVESGGGLVQEGGSLRISCAASGRIFDSNAMVWYRQAPGKERELVAAISNGGTTNYADSVKGRFTISRDNAKNTVYLQMNSLKPADTAVYYCAARGRVVWYNGGSYRFYYWGQGTQVTVSS | high polyreactivity
QVQLVESGGGLVQEGGSLRISCAASGSIFQSNAMGRYRQAPGKERERVAAISSSGVRTYYADSVKGRFTISRDNAKNTVYLQMNSLKREDTAVYYCATGWYYAGGPTYEYYYWGQGTQVTVSS | low polyreactivity
